# Measured values published in the supplement of paper PMC9170038.
# Columns and labels:
# [1] = system: K4 kissing-loop RNA reporter; experiment: apparent KD of K4 kissing-loop reporter; higher = weaker reporter binding; details: Eterna round: R107;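 further: bound reporter read as fluorescence of individual clusters on recovered sequencing chips by microscopy, with normalized cluster intensities fitted with a binding model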
# Experimental: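 RNA-MaP round R107: designed RNA switches with theophylline, tryptophan, arginine or FMN aptamers are transcribed on-chip within common flanks. They are titrated with a labelled K4 kissing-loop RNA reporter in RNA-MaP buffer (100 mM Tris pH 7.5, 80 mM KCl, 4 mM MgCl2), without ligand or with the indicated ligand. Median apparent KD per design.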
# MS2 coat protein = experiment: apparent KD of MS2 coat protein; designed switch direction (-1 OFF switch, 1 ON switch): -1; higher = weaker reporter binding
# In short: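 Designed RNA switches with common flanks were transcribed on Illumina chips by stalled E. coli RNA polymerase and titrated with SNAP-549-labelled MS2 coat protein, from 0.7 or 1.5 nM doubling to 3 µM, in Tris-HCl pH 7.5 buffer with KCl, MgCl2, BSA, DTT, tRNA and Tween-20. Steps lasted 0.8–1.5 h (lowest) to 10–20 min (highest). Titrations ran without input, with 200 uM small-molecule ligand, or with an oligonucleotide input. Normalised cluster fluorescence was curve-fitted, and apparent KD is the per-design median over clusters.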
# [2] = input ligand: theophylline 20 uM
# [3] = input ligand: tryptophan 2.4 mM
# [4] = Eterna round: R95, input ligand: FMN 200 uM
# [5] = Eterna round: R95, input ligand: microRNA oligo, concentration not stated
# [6] = Eterna round: R95, input ligand: none
# [7] = input ligand: microRNA oligo, concentration not stated
Sequence,apparent KD of K4 kissing-loop reporter ([1]; input ligand: FMN 200 uM) [nM],apparent KD of K4 kissing-loop reporter ([1]; input ligand: arginine 13.2 mM) [nM],apparent KD of K4 kissing-loop reporter ([1]; input ligand: none) [nM],"apparent KD of K4 kissing-loop reporter [1, 2] [nM]","apparent KD of K4 kissing-loop reporter [1, 3] [nM]",apparent KD of MS2 coat protein (MS2 coat protein; [4]) [nM],apparent KD of MS2 coat protein (MS2 coat protein; [5]) [nM],apparent KD of MS2 coat protein (MS2 coat protein; [6]) [nM],apparent KD of MS2 coat protein (MS2 coat protein; input ligand: FMN 200 uM) [nM],apparent KD of MS2 coat protein (MS2 coat protein; input ligand: none) [nM],apparent KD of MS2 coat protein (MS2 coat protein; [7]) [nM]
AAUAAGUGUCAGCGAGUGAUGUUCGACGAUACCAGACUCGAUAGAGUCCCUUGGCAGCGUAACGCAUGCCAAACUGGCACAAUAA [#SwitchBubble 8 #K4Early],444,444,611,507,450,,,,,,
UGUAUGUGAUUUGAUACCAGACCAGCUGGUGUUAGAUGAGUGAUGUUGAUCUAGGGUUGGGUCCCUUGGCAGCAAAUCGCAUACU [KL-SSTheoB22],593,391,557,435,463,,,,,,
AGCCAUCACACGGCCGCCACUGAGUAGUGAUGUUGCUUGUAAAUCAGUCACCGCAUUAAUGCCGACAGGACCGGGUGCAUCGAGG [theeternabot_exclusion_KL_Trp_B_17],327,142,327,394,247,,,,,,
CCCUCACGAGUGAUGUUCGUAGGGUACAGUCAGGAUAUCAUGCGGUUGAGAAGGGACAGGAAGGGCGGCGGCGGGUUGCUCACCG [Atera],154,163,192,204,150,,,,,,
CCAGAAUAAUGAAGAUGAUAAAUUACUGAAGGAGCGCAUAUAGUUGCAGGUAGGUCGCGGUGAAUAAGUAUAGUGAUGUUAUACC [SSArgA.Ad],261,209,256,260,255,,,,,,
AUGGGCGAGGUAACGUGGAUAUCUCGUCGCAAGGAUAUCUGGAAACAGAGAAGGUGCUACAUUACCGGCAGUGAUGUUGCUGACC,959,231,559,263,131,,,,,,
UAGUCCGAGUGAUGGUCAUCACGUGGCGGGCGAGGACCGGUACGGCCGCCACUCGACUUUGCAGUGAUGUUGCAAACCGGACAAU [Exclusion - Tryptophan A (Freestyle 21)],229,185,249,224,193,,,,,,
AAAUAAAUCACGGCCGCCACUGCUAGAGUGAUGUUCUAUUAAUAAUUUCUAAAUUAUAUAAUACUCAGGACCGGGUGAUUUUUAA [JR_SSTryptoB_Sub020],578,215,355,426,446,,,,,,
UUAUAUUUUAUAUUUAGAUGAUCUAUAGCACGAGGACCGGUACGGCCGCCACUCGAGUGAUGUUCGAGAGCUAUAGAUCAUCAUU [AK2.2 EXC Tryptophan A],142,132,148,121,207,,,,,,
AGAGAGGUGUUUUUUUGAUGUGAGUAAUGGCGAGGACCGGUACGGCCGCCACUCGGGUGAUGUUAGUGAUGUUGAUGUAGUGAUG [p'pmullin],79.4,66.6,71.1,131,77,,,,,,
CAUAUAUACACUAACCCGUACGGUAGUAAGCGAGGACCGGUACGGCCGCCACUCGAUCGUUUCGUGUUAGCACCAGUGAUGUUGG [theeternabot_sameState_KL_Trp_A_3],461,399,526,431,392,,,,,,
AAUAAGGUCGCCGAUACCAGCGCAGGCAGAGCAAAGCUCUGCCUGGUAGUGAUGUUACCGCGCCCUUGGCAGCGGUGGCACGACC [Omei KL Theo B SS C v5],64.8,27.1,71.3,71.7,85.9,,,,,,
GCCAUCUACUAAGGAUAUUAAGUCAAUAUUUGUGGUGCCAUCUGUCGUUCAGGGCAGUGAUGUUGCUAAGAAGGUAGUCUGUCGG [theeternabot_exclusion_KL_FMN_B_39],757,441,636,593,407,,,,,,
GAGAUAGAGGCGGCCGCCACUAGUGAUGUUAGUGAUGUUAGAUAGAGAAUAUAACAGGGAUUAGAUAGGACCGGGCCAGAUGGAG ['lljullin],116,104,130,103,100,,,,,,
AUGAGGUGACUAAAUAAUAAGGGAAUUGAUACCAGACAGAAUUCUGUCCCUUGGCAGCAGUGAUGUUGUUGCAAGUCAGCUCAAA [AK1.1 Exc Theophylline A],265,186,206,198,212,,,,,,
AGUACAGACACGGCCGCCACUCAGAAGAAGACAGUAGUGAUGUUACUGAUGGUGAGAAUAAUAAAGAGGACCGGGUGUUGUGCAA [#04 K4 Tryptophan B Same State],222,202,224,240,138,,,,,,
UAACCGCAGAAAGAUACCAGUGAGUGAUGUUCCUCGAUCCUGUGGUUCAUUCUCUUUACCCACCCUUGGCAGCUUCAAAUGUGAC [theeternabot_exclusion_KL_Theo_B_4],831,537,850,573,602,,,,,,
GUCUGCGUCUCGGCCGCCACUCACUAGUGAUGUUAGUAAGGAGCGACUAGAGAAGUCCAGUUGAUGAGGACCGGGAGACGCAAAA [Exclusion Tryptophan B GF4],114,84.3,95.7,85.8,169,,,,,,
GGAUAGGACAGAGGAUAUGGUAGCUAGGCAAGACAAAAGUCUUGUCUAGCAAUGAGGAGUGAUGUUCCAGAAGGCUGUCCUAUCG [FmnBX 4 - #SwitchBubble #StaticStem],753,350,442,387,270,,,,,,

Sequence,apparent KD of K4 kissing-loop reporter ([1]; input ligand: FMN 200 uM) [nM],apparent KD of K4 kissing-loop reporter ([1]; input ligand: arginine 13.2 mM) [nM],apparent KD of K4 kissing-loop reporter ([1]; input ligand: none) [nM],"apparent KD of K4 kissing-loop reporter [1, 2] [nM]","apparent KD of K4 kissing-loop reporter [1, 3] [nM]",apparent KD of MS2 coat protein (MS2 coat protein; [4]) [nM],apparent KD of MS2 coat protein (MS2 coat protein; [5]) [nM],apparent KD of MS2 coat protein (MS2 coat protein; [6]) [nM],apparent KD of MS2 coat protein (MS2 coat protein; input ligand: FMN 200 uM) [nM],apparent KD of MS2 coat protein (MS2 coat protein; input ligand: none) [nM],apparent KD of MS2 coat protein (MS2 coat protein; [7]) [nM]
AGUGAUGUGGGAAGGAGCGGUAUAUGAGUUCAGUGAUGUUGAAGUGAUGAUAUAGUGAUGUGCCAGGUAGGUCGCCUAGAUGUUA [KL-XARG-B5],281,144,210,146,202,,,,,,
AGGCACGAGCAAGGAUAUCGAGUAGAGUGAUGUUCUGCCUGGGUUGGCUCGAAAGGGCCUUCCCAGCGAGAAGGUGCUCGUGCCU [#2 Same State - FMN A Attempt #14 (HarryS)],219,325,300,1040,619,,,,,,
GGUGGCGUUGUUGACAGCUCACCACGAGCCAAGGAUAUAGUUUCUUCUAGAAGGUGGAAUGACAAGUGAUGUUUGUACGACUGCU [theeternabot_exclusion_KL_FMN_A_28],254,233,254,294,185,,,,,,
AAAUAGCUGACGUUGAGUGGGAGCCAGGCACGAGGACCGGUACGGCCGCCACUCGACUAGGUUUUCAGUGAUGUUGAAAAUUUAA [Exclusion Tryptophan A GF 5],239,249,206,224,194,,,,,,
UAUUCUAGAUAGGAUAUACUUUUUUUUUUUUUCGUAGAAGGAUCUACAUGAGGAUCACCCAUGUUAACAGCAGU [JR_E6_Sub010] (puzzle: Exclusion 6),,,,,,66.5,51.6,40.4,,,
"ACUGGUCGAGGAUAUGCAAUCGUGCUUCGGCACGUAAGAUCACAUGAGGAUCACCCAUGUAGAAGGCGACCAGU [E2/3-A2] (Eterna round: R97, puzzle: Exclusion 2)",,,,,,,,,81.7,21.2,
"CUGAGCAGACGGAGAUCCAACAUGAGGAUCACCCAUGUCUCAAAAGCUUUCUGCUCGUCUUAUCCUCCUCUGUUCUC [Engeonrati] (puzzle: Sensor v3, turn-off variant 1)",,,,,,129,205,151,,,
"UACAUGAGGAUCACCCAUGUUUUGUCGUGUAUGGUAUUUAUCUAGGAUAUCAAUUUAGUUAUGUAUGAGAAGGAGAAUAUUAAU [JMF's solution 78] (Eterna round: R96, puzzle: Exclusion NG 3)",,,,,,,,,43.7,46.4,33.9
CCGCAAAUGGAGGAUAUCGUAUCGGAUACGAUACGAGAAGGCUAUACAUGAGGAUCACCCAUGUGUCCUAGCGG [Fiskers Ex 6 - 46] (puzzle: Exclusion 6),,,,,,,11.4,,,,
"UUAAUACAUGUAGGAUAUGCGUGGCGAAGCUAUGCAGAAGGACAUGAGGAUCACCCAUGUCUAUGCGUCCGCGUACGGAUGCAA [JL Eng1 1.21 mod 6] (Eterna round: R96, puzzle: Exclusion NG 1)",,,,,,,,,18.4,16.4,9.06
"ACAUGAGGAUCACCCAUGUGCACGUAAUGGCUCAUGUAGAGUGAGGAUAUGCGUGGCGAACGAGCGCAGAAGGCACAAGACUGG [Deportation 17 - Jieux - Exclusion NG 3] (Eterna round: R96, puzzle: Exclusion NG 3)",,,,,,,,,106,72.6,56.4
GCCUCACAUGAGGAUCACCCAUGUCAGGAUAUCUAAGGCGAGGUGCAGGCACUUCGUGAGAGAAGGGACGUCAA [Ercecequ] (puzzle: Exclusion 1),,,,,,,18,,,,
GAGAAAUUAUAGGAUAUCGAAAGUAUAAUUUAACGAGAAGGAUGAACAUGAGGAUCACCCAUGUGGUAUCAUGG [JL-ex6-3.10] (puzzle: Exclusion 6),,,,,,283,88.2,297,,,
UUUUAGUCAGGAUAUACAUUUUUUUAUUUAUUUAUAAUAUUACAUGAGGAUCACCCAUGUAGAAGGGACAUUUU [My Design] (puzzle: Exclusion 2),,,,,,,29.6,,,,
"CCCAACGUAACAGGAUAUGCUGUUGAGGCCGGGCGACCUACAUGAGGAUCACCCAUGUCGAAAUGGCAGAAGGGUUGCCGGGUA [Quatin] (Eterna round: R96, puzzle: Exclusion NG 2)",,,,,,,,,315,94.4,61.9
"UAGGCGUAAGGAUAUAUCUUUGGACGAGCGAGGGACCAGAGAUAGAAGGUACAUGAGGAUCACCCAUGUGGGUC [Eternabot (L1) Solution 41] (Eterna round: R97, puzzle: Exclusion 4)",,,,,,,,,189,64.9,
"AAGAGGAUCGGAGGAUAUGGAGCUGAAACGGCGCUAGAAGGCCGUCCAGUGUAACAUGAGGAUCACCCAUGUAGGGACCUCUAA [EX ng 1 4.1] (Eterna round: R96, puzzle: Exclusion NG 1)",,,,,,,,,314,102,65.5
AUGAGACAUGAGGAUCACCCAUGUGAGGAUAUGUAUGGAUGGAGGAAAGAAUGAGAGAACAGAAGGCACGGAGG [JR_Exclu1_Sub065] (puzzle: Exclusion 1),,,,,,70.7,72.7,112,,,
